Laboratory results: patent publication US20150291697A1 (PERSEUS PROTEOMICS, published 2015)

Experiments:
[1] = target: human transferrin receptor (TfR) on cells (human, UniProt P02786 1-760); test: cell-based or functional assay
[2] = target: T1, soluble TfR antigen (human TfR extracellular domain) (human, UniProt P02786 89-760); test: ELISA, soluble TfR antigen coated at 2 ug/mL, HRP anti-human IgG Fc, A450
T1 construct: also called soluble human TfR
T1 sequence (P02786 89-760 limits assumed): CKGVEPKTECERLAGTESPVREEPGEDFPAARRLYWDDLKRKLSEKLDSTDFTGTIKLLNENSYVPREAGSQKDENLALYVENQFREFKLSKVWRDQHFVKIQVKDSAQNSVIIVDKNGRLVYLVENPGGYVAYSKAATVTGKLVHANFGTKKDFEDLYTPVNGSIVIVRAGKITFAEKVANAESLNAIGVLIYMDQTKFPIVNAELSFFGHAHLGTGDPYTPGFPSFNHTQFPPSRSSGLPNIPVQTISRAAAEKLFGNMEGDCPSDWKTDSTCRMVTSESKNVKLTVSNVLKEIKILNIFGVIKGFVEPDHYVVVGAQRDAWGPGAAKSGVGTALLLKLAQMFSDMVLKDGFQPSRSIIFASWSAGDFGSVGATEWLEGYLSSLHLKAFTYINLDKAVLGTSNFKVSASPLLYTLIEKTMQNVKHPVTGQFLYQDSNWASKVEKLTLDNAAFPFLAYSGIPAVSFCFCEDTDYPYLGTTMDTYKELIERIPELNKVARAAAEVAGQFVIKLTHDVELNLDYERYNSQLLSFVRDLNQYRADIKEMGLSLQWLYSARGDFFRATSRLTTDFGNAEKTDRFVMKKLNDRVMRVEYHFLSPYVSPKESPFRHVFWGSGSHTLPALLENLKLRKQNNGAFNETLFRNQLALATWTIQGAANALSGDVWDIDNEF

human transferrin receptor (TfR) on cells, sequence (P02786 whole entry, the tested form may be a part): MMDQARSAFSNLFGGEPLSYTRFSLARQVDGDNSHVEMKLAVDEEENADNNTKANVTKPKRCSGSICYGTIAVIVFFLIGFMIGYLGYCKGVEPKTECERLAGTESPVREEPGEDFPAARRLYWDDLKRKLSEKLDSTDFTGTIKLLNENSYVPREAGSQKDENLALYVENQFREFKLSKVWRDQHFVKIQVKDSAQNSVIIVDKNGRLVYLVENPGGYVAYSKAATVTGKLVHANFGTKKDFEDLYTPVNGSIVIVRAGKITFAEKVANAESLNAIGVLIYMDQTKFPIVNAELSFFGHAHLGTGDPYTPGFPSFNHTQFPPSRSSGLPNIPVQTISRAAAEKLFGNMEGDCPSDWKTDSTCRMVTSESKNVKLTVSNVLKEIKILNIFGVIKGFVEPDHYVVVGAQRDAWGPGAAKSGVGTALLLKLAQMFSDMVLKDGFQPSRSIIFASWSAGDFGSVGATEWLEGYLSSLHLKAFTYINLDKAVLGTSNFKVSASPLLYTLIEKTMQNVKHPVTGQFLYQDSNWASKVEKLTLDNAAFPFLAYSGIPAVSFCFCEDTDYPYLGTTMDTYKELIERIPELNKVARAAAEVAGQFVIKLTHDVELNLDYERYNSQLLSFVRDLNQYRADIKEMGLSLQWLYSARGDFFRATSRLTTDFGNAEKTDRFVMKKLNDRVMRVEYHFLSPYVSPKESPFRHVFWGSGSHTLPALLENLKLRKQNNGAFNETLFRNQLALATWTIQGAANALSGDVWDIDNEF

Binder	Antibody concentration exhibiting 50% growth rate (IC50), K562 cells [1]	Antibody concentration exhibiting 50% growth rate (IC50), MT-2 cells [1]	binding result [2]
TfR006 antibody (parent antibody, IgG) (antibody, V domains shown) VH: QVQLVQSGGGVVQPGRSLRLSCAASGFPFKSYGMHWVRQAPGKGLEWVAVISFDGSSKYYADSVKGRFTISRDNSKNTLYLQMNSLRGEDTAVYYCARDSNFWSGYYSPVDVWGQGTTVTVSS VL: NFMLTQPHSVSESPGKTVTISCTRSSGSIASNSVQWYQQRPGSAPITVIYEDTQRPSGVPDRFSGSIDSSSNSASLTISGLQTEDEADYYCQSYDSAYHWVFGGGTKLAVL	0.034 µg/mL	0.008 µg/mL	
3TF12 IgG1 antibody (from 3TF12 scFv of WO 2011/073943) (antibody, V domains shown, also called 3TF12 antibody) VH: QVQLQESGGGLVQPGGSLRLSCAASGFSFNTYTMHWVRQAPGKGLEWVADIAYDGSTKYYADSVKGRFTISRDNAKNSLYLQMNSLRAEDTAVYYCARDAVAGEGYFDLWGRGTLVTVSS VL: QSALTQDPAVSVALGQTVRITCQGDSLRSYYASWYQQLPGTAPKLLIYRNNQRPSGVPDRFSGSKSGTSASLAISGLRSEDEADYYCAAWDDSLSAWVFGGGTKLTVLG			binds
